Laboratory results reported in the supplement of paper PMC9876800.

Tested on: peptide library, one residue held at a place counted from the S/T acceptor
Assay: relative phosphorylation of the sub-library (ratio to the mean residue at this position); higher = residue favoured
In short: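 Relative sub-library phosphorylation is a ratio to the mean residue at the same position. Purified recombinant kinases were incubated under kinase-specific conditions with biotinylated degenerate peptide sub-libraries, each fixing one residue at one position around a central Ser/Thr, using 50 μM peptide and 50 μM ATP spiked with γ-32P-ATP for 90 min. Spots captured on streptavidin membranes were phosphorimaged and quantified by densitometry.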

Chain of CLK4, construct: aa128-481, human (Q9HAZ1 128-481, looked up): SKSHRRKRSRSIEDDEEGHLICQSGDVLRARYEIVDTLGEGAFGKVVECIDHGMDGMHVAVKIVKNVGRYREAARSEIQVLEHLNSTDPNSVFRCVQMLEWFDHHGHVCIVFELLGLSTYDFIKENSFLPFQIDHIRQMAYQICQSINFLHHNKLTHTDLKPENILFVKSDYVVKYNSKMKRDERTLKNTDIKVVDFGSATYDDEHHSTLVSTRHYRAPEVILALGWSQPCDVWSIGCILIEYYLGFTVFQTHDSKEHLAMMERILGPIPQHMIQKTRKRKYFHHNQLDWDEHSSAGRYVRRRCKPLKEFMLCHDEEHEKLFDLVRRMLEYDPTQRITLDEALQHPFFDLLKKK

CLK4, construct: aa128-481, human (from UniProt Q9HAZ1)
relative phosphorylation
Settings | at +1 | at +2 | at +3 | at +4 | at -1 | at -2 | at -3 | at -4 | at -5
A fixed | 0.617 | 1.09 | 0.764 | 0.712 | 0.792 | 1.63 | 0.609 | 0.923 | 0.926
D fixed | 0.293 | 0.989 | 0.691 | 1.07 | 0.403 | 0.553 | 0.453 | 0.649 | 0.735
E fixed | 0.565 | 0.943 | 0.592 | 1.1 | 0.48 | 1.52 | 0.374 | 0.721 | 0.595
F fixed | 0.435 | 0.928 | 0.771 | 0.91 | 0.705 | 0.337 | 0.327 | 0.858 | 1.39
G fixed | 0.628 | 1.04 | 0.925 | 0.889 | 0.975 | 0.943 | 0.553 | 1.09 | 1.02
H fixed | 0.7 | 1.28 | 1.1 | 1.06 | 1.18 | 0.546 | 0.709 | 0.979 | 1.05
I fixed | 1 | 0.795 | 0.61 | 0.869 | 0.55 | 0.343 | 0.332 | 0.857 | 0.786
K fixed | 0.807 | 1.36 | 2.5 | 1.26 | 2.09 | 0.978 | 2.16 | 1.72 | 1.47
L fixed | 0.784 | 0.877 | 0.731 | 0.8 | 0.935 | 0.461 | 0.394 | 0.781 | 0.891
M fixed | 0.727 | 0.837 | 0.717 | 1.02 | 1.04 | 0.443 | 0.429 | 0.884 | 0.69
N fixed | 0.498 | 0.804 | 0.822 | 0.935 | 0.865 | 0.42 | 0.476 | 0.807 | 0.881
P fixed | 5.64 | 1.21 | 2.04 | 0.901 | 1 | 0.453 | 0.405 | 0.806 | 0.909
Q fixed | 0.793 | 0.929 | 0.795 | 1.07 | 1.12 | 0.717 | 0.509 | 0.839 | 0.827
R fixed | 0.853 | 1.33 | 1.7 | 1.28 | 2.36 | 6.56 | 8.11 | 2.25 | 1.82
V fixed | 1.59 | 1.04 | 0.67 | 0.772 | 0.704 | 0.386 | 0.331 | 0.755 | 0.771
W fixed | 0.486 | 0.754 | 0.763 | 1.25 | 0.895 | 0.348 | 0.429 | 1.1 | 1.24
Y fixed | 0.574 | 0.792 | 0.8 | 1.1 | 0.89 | 0.356 | 0.399 | 0.973 | 1
pThr fixed | 0.796 | 1.92 | 0.773 | 2.01 | 0.343 | 0.467 | 0.603 | 0.846 | 0.81
pTyr fixed | 0.516 | 0.647 | 1.52 | 1.16 | 0.546 | 0.295 | 0.356 | 0.732 | 0.938

PRKCH, construct: Full length, human (from UniProt P24723)
relative phosphorylation
Settings | at +1 | at +2 | at +3 | at +4 | at -1 | at -2 | at -3 | at -4 | at -5
A fixed | 0.536 | 0.49 | 0.738 | 0.933 | 1.07 | 0.893 | 0.78 | 1.1 | 1.19
D fixed | 0.187 | 0.163 | 0.449 | 0.528 | 0.548 | 0.496 | 0.423 | 0.718 | 0.638
E fixed | 0.282 | 0.15 | 0.547 | 0.496 | 0.55 | 0.467 | 0.469 | 0.799 | 0.721
F fixed | 1.78 | 0.68 | 0.858 | 0.658 | 0.632 | 0.721 | 0.813 | 0.773 | 1.23
G fixed | 0.374 | 0.299 | 1.06 | 0.926 | 1.42 | 1.13 | 0.776 | 1.12 | 0.955
H fixed | 0.661 | 1.39 | 1.28 | 1.45 | 0.981 | 1.24 | 1.39 | 1.15 | 1.12
I fixed | 1.47 | 0.622 | 0.754 | 0.632 | 0.397 | 0.405 | 0.444 | 0.614 | 0.818
K fixed | 1.86 | 3.28 | 2.09 | 2.44 | 1.98 | 1.9 | 1.88 | 1.72 | 1.53
L fixed | 1.19 | 0.561 | 0.883 | 0.64 | 0.733 | 0.438 | 0.551 | 0.66 | 0.852
M fixed | 1.43 | 0.745 | 0.785 | 0.708 | 0.929 | 0.592 | 0.695 | 0.869 | 0.722
N fixed | 0.548 | 0.668 | 0.974 | 1.04 | 1.36 | 1.32 | 0.995 | 1.06 | 0.97
P fixed | 0.286 | 0.212 | 0.554 | 1.11 | 1.11 | 0.736 | 0.821 | 1.05 | 0.798
Q fixed | 1.12 | 0.583 | 0.839 | 0.986 | 0.999 | 1.28 | 0.842 | 0.927 | 0.878
R fixed | 2.06 | 4.08 | 2.24 | 1.99 | 2.16 | 3.2 | 4.05 | 1.67 | 1.75
V fixed | 1.31 | 0.596 | 0.754 | 0.715 | 0.593 | 0.447 | 0.466 | 0.716 | 0.847
W fixed | 0.831 | 0.669 | 1.05 | 1 | 0.61 | 1.02 | 0.786 | 1.18 | 1.12
Y fixed | 1.07 | 1.81 | 1.16 | 0.753 | 0.94 | 0.696 | 0.824 | 0.878 | 0.857
pThr fixed | 0.833 | 0.36 | 0.641 | 0.773 | 0.411 | 0.691 | 0.644 | 0.881 | 0.699
pTyr fixed | 0.574 | 0.268 | 0.811 | 0.593 | 0.751 | 0.641 | 0.847 | 0.869 | 1.09
